Experimental data as given in US6812337 (GOVERNING COUNCIL OF THE UNIVERSITY OF TORONTO, dated 2004).

B1: PAMPΔ312-340 (other, not shown: small tags and cut ends)
chain: NSVERKIYIPLNKTAPCVRLLNATHQIGCQSSISGDTGVIHVVEKEEDLQWVLTDGPNPPYMVLLESKHFTRDLMEKLKGRTSRIAGLAVSLTKPSPASGFSPSVQCPNDGFGVYSNSYGPEFAHCREIQWNSLGNGLAYEDFSFPIFLLEDENETKVIKQCYQDHNLSQNGSAPTFPLCAMQLFSHMHAVISTATCMRRSSIQSTFSINPEIVCDPLSDYNVWSMLKPINTTGTLKPDDRVVVAATRLDSRSFFWNVAPGAESAVASFVTQLAAAEASRMVYDMEKGKFPVQLENVDSFVELGQVALRTSLELWMHTDPVSQKNESVRNQVEDLLATLEKSGAGVPAVILRRPNQSQPLPPSSLQRFLRARNISGVVLADHSGAFHNKYYQSIYDTAENINVSYPEWLSPEEDLNFVTDTAKALADVATVLGRALYELAGGTNFSDTVQADPQTVTRLLYGFLIKANNSWFQSILRQDLRSYLGDGPLQHYIAVSSPTNTTYVVQYALANLTGTVVNLTREQCQDPSKVPSENKDLYEYSWVQGPLHSNETDRLPRCVRSTARLARALSPAFELSQWSSTEYSTWTESRWKDIRARIFLIASKELELITLTVGFGILIFSLIVTYCINAKADVLFIAPREPGAVSY
B2: calnexin (other, UniProt P27824 21-592, looked up)
chain: HDGHDDDVIDIEDDLDDVIEEVEDSKPDTTAPPSSPKVTYKAPVPTGEVYFADSFDRGTLSGWILSKAKKDDTDDEIAKYDGKWEVEEMKESKLPGDKGLVLMSRAKHHAISAKLNKPFLFDTKPLIVQYEVNFQNGIECGGAYVKLLSKTPELNLDQFHDKTPYTIMFGPDKCGEDYKLHFIFRHKNPKTGIYEEKHAKRPDADLKTYFTDKKTHLYTLILNPDNSFEILVDQSVVNSGNLLNDMTPPVNPSREIEDPEDRKPEDWDERPKIPDPEAVKPDDWDEDAPAKIPDEEATKPEGWLDDEPEYVPDPDAEKPEDWDEDMDGEWEAPQIANPRCESAPGCGVWQRPVIDNPNYKGKWKPPMIDNPSYQGIWKPRKIPNPDFFEDLEPFRMTPFSAIGLELWSMTSDIFFDNFIICADRRIVDDWANDGWGLKKAADGAAEPGVVGQMIEAAEERPWLWVVYILTVALPVFLVILFCCSGKKQTSGMEYKKTDAPQPDVKEEEEEKEEEKDKGDEEEEGEEKLEEKQKSDAEEDGGTVSQEEEDRKPKAEEDEILNRSPRNRKPRRE
notes: whole, on cells; The only named member of 'other ER-resident proteins'; also called other ER-resident proteins (e.g., calnexin)
B3: PAMPΔ312-369 (other, not shown: small tags and cut ends)
chain: NSVERKIYIPLNKTAPCVRLLNATHQIGCQSSISGDTGVIHVVEKEEDLQWVLTDGPNPPYMVLLESKHFTRDLMEKLKGRTSRIAGLAVSLTKPSPASGFSPSVQCPNDGFGVYSNSYGPEFAHCREIQWNSLGNGLAYEDFSFPIFLLEDENETKVIKQCYQDHNLSQNGSAPTFPLCAMQLFSHMHAVISTATCMRRSSIQSTFSINPEIVCDPLSDYNVWSMLKPINTTGTLKPDDRVVVAATRLDSRSFFWNVAPGAESAVASFVTQLAAAEALRTSLELWMHTDPVSQKNESVRNQVEDLLATLEKSGAGVPAVILRRPNQSQPLPPSSLQRFLRARNISGVVLADHSGAFHNKYYQSIYDTAENINVSYPEWLSPEEDLNFVTDTAKALADVATVLGRALYELAGGTNFSDTVQADPQTVTRLLYGFLIKANNSWFQSILRQDLRSYLGDGPLQHYIAVSSPTNTTYVVQYALANLTGTVVNLTREQCQDPSKVPSENKDLYEYSWVQGPLHSNETDRLPRCVRSTARLARALSPAFELSQWSSTEYSTWTESRWKDIRARIFLIASKELELITLTVGFGILIFSLIVTYCINAKADVLFIAPREPGAVSY

Key:
[1] = target: wild type human presenilin-1 (PS1) (human, UniProt P49768 1-467); experiment: cell-based or functional assay
[2] = target: T1, V5-tagged human Presenilin Associated Membrane Protein (PAMP) (human, UniProt Q92542 34-709); experiment: immunoprecipitation from cell lysates, Western blot
T1 construct: Expressed by transfection in HEK293 cells or murine embryonic fibroblasts and tested by co-immunoprecipitation from detergent lysates; Glycosylated (~110 kDa, ~80 kDa after Endo H); also called V5-PAMP; V5-tagged-PAMP

| Binder | Aβ42/Aβ40 Ratio [1] | binding result [2] |
| --- | --- | --- |
| B1 | 0.59 normalized to mock transfection | – |
| B2 | – | no binding |
| B3 | 0.09 normalized to mock transfection | – |
